Experimental data: US20100034831A1 (DOMANTIS, published 2010)

Biological target: T1, mouse TNFR1 on L929 fibroblasts (mouse, UniProt P25118 30-454)
T1 sequence (looked up): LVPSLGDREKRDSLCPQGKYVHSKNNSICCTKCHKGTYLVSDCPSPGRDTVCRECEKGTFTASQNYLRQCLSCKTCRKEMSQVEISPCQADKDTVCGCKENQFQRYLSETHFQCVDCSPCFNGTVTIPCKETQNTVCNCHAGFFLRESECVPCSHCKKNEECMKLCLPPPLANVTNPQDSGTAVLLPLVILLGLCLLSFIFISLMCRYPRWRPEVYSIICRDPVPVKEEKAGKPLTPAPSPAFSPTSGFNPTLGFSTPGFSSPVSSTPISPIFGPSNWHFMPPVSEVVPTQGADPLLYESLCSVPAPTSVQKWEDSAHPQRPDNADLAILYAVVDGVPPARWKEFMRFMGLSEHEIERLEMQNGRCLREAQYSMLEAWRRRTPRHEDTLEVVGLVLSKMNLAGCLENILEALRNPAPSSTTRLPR
Assay: cell-based or functional assay

B1: TAR2m-21-23 (anti-TNFR1 dAb monomer) (other)
VH: EVQLLESGGGLVQPGGSLRLSCAASGFTFNRYSMGWLRQAPGKGLEWVSRIDSYGRGTYYEDPVKGRFSISRDNSKNTLYLQMNSLRAEDTAVYYCAKISQFGSNAFDYWGQGTQVTVSS
Potency, ND50 L929 assay: 1 nM

B2: TAR2m-15-12 (anti-TNFR1 dAb) (other)
chain: DIQMTQSPSSLSASVGDRVTITCRASQYIHTSVQWYQQKPGKAPKLLIYGSSRLHSGVPSRFSGSGSGTDFTLTISSLQPEDFATYYCQQNHYSPFTYGQGTKVEIKR
Potency, ND50 L929 assay: 5 nM

B3: PEG DOM1M (anti-TNFR1 dAb monomer TAR2m21-23 PEGylated with a 40 kDa polyethyleneglycol) (other)
VH: EVQLLESGGGLVQPGGSLRLSCAASGFTFNRYSMGWLRQAPGKGLEWVSRIDSYGRGTYYEDPVKGRFSISRDNSKNTLYLQMNSLRAEDTAVYYCAKISQFGSNAFDYWGQGTQVTVSS
modifications: PEGylated with a 40 kDa polyethyleneglycol (attachment site not stated)
Potency, ND50 L929 assay: 1 nM
